Test: soluble on expression in E. coli; label from the status in PepcDB or PDB records

Sequence	soluble on expression in E. coli
MSLTGQAEAPFIRHGYFKFADGVIVSVAEGTPSPEEIDRVEVIDGKGKWVMPGMINTHGHLGMSLLRGHSDDLPLQSWLTEKMWPFEGKMDREAVHHARQLAMAEMIKSGTTTFLEMYHLYMDDLAEAVVEQGPRAVLMRSMIGLCSESEQREKLKEAVTFATTWNGDGNGRITTMMAPHAPYTCPPSFIEMIVDEADRIDLPLHTHMAETQREVEEHRKTYGVHPLVHFEQLGFLKDRHWLLAHCVHLGEEELDILEQHPSVHVSHNPMSNLKLGSGIANVQSMLERGINICLGTDSVASNNHLDLVEEMRIAALLQKGAVLDPTAIPAETAIAMATKNGAKALRLPQVGTIEAGKRADFIMIDPQCLHLQPHEHVMSHLVYALKGADVQDVFVEGAPLMLNKELKTFDEEKLQFEANAHYQRICEKLKEGHHHHHH	not soluble
MFDSTLNPLWQRYILAVQEEVKPALGCTEPISLALAAAVAAAELEGPVERVEAWVSPNLMKNGLGVTVPGTGMVGLPIAAALGALGGNANAGLEVLKDATAQAIADAKALLAAGKVSVKIQEPCDEILFSRAKVWNGEKWACVTIVGGHTNIVHIETHDGVVFTQQACVAEGEQESPLTVLSRTDAG	not soluble
MVDQAQDTLRPNNRLSDMQATMEQTQAFENRVLERLNAGKTVRSFLITAVELLTEAVNLLVLQVFRKDDYAVKYAVEPLLDGDGPLGDLSVRLKLIYGLGVINRQEYEDAELLMALREELNHDGNEYAFTDDEILGPFGELHCVAALPPPPQFEPADSSLYAMQIQRYQQAVRSTMVLSLTELISKISLKKAFQK	soluble
MSLDNIIIIQTKNPNYYAIKYAYKNQYEQFYEEELNIRKKLNYPPFNKIIRIIFRSKNEESAKQKCWEFFEKSKEFLQEEIEHLGPSEAIMKKISKNYRYNIIYLSKSYSLLEKLVNKTKEKVKMTSTVYIEIDYYPISEGHHHHHH	not soluble
ASAFSESEETFVRIVAQWAGKEISRRRNQKRANAERERLRQIIDTIPQQVFVKDADGTYTLANKAAAAAHGVAVERLEGATHDEFALSDEQRDFKSDDAAVIENGESVHIEEDGLVEADGSSHTVQTDIVPIEIAS	not soluble
MRFKAELMNAPEMRRALYRIAHEIVEANKGTEGLALVGIHTRGIPLAHRIARFIAEFEGKEVPVGVLDITLYRDDLTEIGYRPQVRETRIPFDLTGKAIVLVDDVLYTGRTARAALDALIDLGRPRRIYLAVLVDRGHRELPIRADFVGKNVPTSRSEVVKVKVEEVDGEDRVELWEREGA	soluble
METIKSVDIYELGSPGEKSSPWSSTILIVKLTSSNGNIGYGEAPTTFMTLPVKESMREVERVFKDQNYFNIEKNMREFYKHSFYLSRSMEATSALSAFEIASWDLIGKDLGTPVYNLLGGEYNSELRAYANGWYSDCLEPDDFVSRAKEYIKKGYTAFKFDPFRNNFDRIGNDGIKKAVDIVSAMRSELGENIDLLIECHGRFSTKYAIKVGQALDEFNPLFIEEPIHPEMELGLFDFKRYVNTPVALGERLLNKEDFARYISQGMVDIVQADLTNSKGILEAKKISAIVESFGGLMAFHNAFGPVQTAATLNVDYTLTNFLIQESFEDSWPDWKRNLFSGYRIENGHFKLSGKPGLGITADEKLMEKLIYDGMEEFNKNEPSWVVSGTYK	not soluble
DDIEADHVGSYGIVVYQSPGDIGQYTFEFDGDELFYVDLDKKETIWMLPEFAQLRSFDPQGGLQNIATGKHNLGVLTKRSNSTPATNEAPQATVFPKSPVLLGQPNTLICFVDNIFPPVINITWLRNSKSVADGVYETSFFVNRDYSFHKLSYLTFIPSDDDIYDCKVEHWGLEEPVLKHWEP	soluble
MSLSDPTNNKPAPVLRESATFDRLTIQEIQRAAETGIYDIRGGGTKRKLPHFDDLLLLGASVSRYPLEGYREKCGTDVVLGNRFAKKPLYLKIPVTIAGMSFGALSANAKEALGRGATIAGTSTTTGDGGMTPEERGQSQHLVYQYLPSRYGMNPDDLRKADAIEIVLGQGAKPGGGGMLLGMKVTERVAGMRTLPVGVDQRSACRHPDWTGPDDLAIKIAEIREITDWEKPIYVKIGASRPYYDVKLAVKAGADVIVLDGMQGGTAATQEVFIEHVGIPILPAIPQAVQALQEMGMHRKVQLIVSGGIRNGADVAKAMALGADAVAIGTAALIALGDNHPRLDEELKKIGSAAGFYDDWQNGRDPAGITTQDPELSKRLDPVEGGRRLANYLRVLVLEAQTMARACGKSHLHNLDPEDLVALTVESAAMARVPLAGTSWIPGSGSKGIITITTDPNSSSVDKLAAALEHHHHHH	soluble
GMTSRSPFESFVWQSEIFNCQSNDIDAFYAQLAEEVNRLGLKKNTLGSVDSFAINLYQSASQRSDLPSLLISSGFHGEEAAGPWGMLHFLRGLQPALFERVNLSLLPLVNPTGFKAGHRFNRFGENPNRGFTLENGKPTPNEHTSLEGKLLLEHAQLLCAASRDGILTCHEDVLMNETYVYSFEPTQTPGRFSLGLRDALGQYFKLAKDGFIDECPVTDGVIFNHFDTSFEAFLVRSGAKLAACSETPGQEDFDRRVQANSAAMGQFIAHCAPIL	soluble
MDITLRTLTENDLPFVKDIYDYYTLHTTVVYFVHCASIDELKNYIPVGDPVYRSFIIETPEGAPCGFCYFARFKPREAFRISVELTLYLKPEFTGRGYGKQAILRLEEIIRQEGFSNIMALISGENEASIRLFEKCGFECCANIRQVAEKFGKKLDLRMYQKIISDNSHLTP	not soluble
MSLRHSGAPLSPRNVCPMKTIAPCMAAMMLLSGCNGVPTSYVSDPVYSQAFVVTSGAPLPMLLMASAIQWNEDYAVTAKHTPFLRNVVHEGLGDVVFFKHKASSVPHWRQYVPGEAVTAVGFNSFMMPMQGKGHALSSLVRLEGTPGSVFYSVHDGPITKGMSGGPVFADDGKVVGINVAIIPTDEINAGKRPDLVGKDRISVFMSFSEIDKEWRRYQYLLAHKAKPKAPAAVKGYVAVAAKEGHHHHHH	not soluble
MENVVIIDAVRTPMGRSKGGAFRHVRAEDLSAHLMRAVISRNPGLNAAEIDDIYWGCVQQTLEQGFNIARNASLLAEIPHSVPAVTVNRLCGSSMQALHDGARAIMVGDAKISLIGGVEHMGHVPMNHGVDFHPGMGRTVAKAAGMMGLTAEMLAKIHNISRQSQDEFAFRSHQRAYAATQAGHFAKEIVATNGHDAEGVLKRFDFDEVIRPETNLSGLAALRPAFDPVNGTVTAGTSSALSDGASAMLIMSESRAKSLGLTPRARIRSMAVVGCDPSIMGYGPVPASQLALKRAGLELADIGLFELNEAFAAQSLACLKGLGLLESMDDKVNLNGGAIALGHPLGCSGARISTTLLNLMERRDVQFGLATMCIGLGQGIATVFERL	not soluble
MSLALITLRQRNNKVEVRVFDTGIGIDADKQKAIFTDFYRIQDSDEAGVGLGLGVVRRLTEQMHATIDVSSVKRKGSCFILNMRIGSPVTESNVTFNKVKQTLSGLNVLCVDDKNENLDALETLLTRWEVNVVMANTYESALTLLASNKHPSPDVLLIDYQLDKDQDGLSLIKDIKAQVGKHIPSAIVTALQDQELKETCLSQGIQFLNKPLKPAKLRALLQSLAKQKSEGHHHHHH	not soluble
MTERSPLRVGIGGPVGSGKTALTLNLCRALRNKYNMAVVTNDIYTKEDSNFLTRNEAMTPDRIVGVETGGCPHTAIREDASINLAAIDDLCEKFDGLELIIIESGGDNLAATFSPELSDLTLYVIDVAGGEKIPRKGGPGITKSDLLIINKTDLAPMVGANLDVMEQDAKRMRGEKPFLFSNMKTEDGLTQIIEFIEKQGLFKALEHHHHHH	soluble
MGSDKIHHHHHHMDHQMEDLLEHWLPLADDAWVLAVITHIQGSSYRKPGAMMLFHEFGQGAGILSGGCLEADLRRHAQNAMLSHQIGCVSYDATDESDASYRLGCGGKVDIMLIPLLKENHDLGLVDIVQAFRKGQSGFYQLPLVPAGSDARSYSAQFYSSENVPFATADFAKAGVLSQPSGDTLIIPIRPRFHLGIFGGGIDAKPVAAIAHSLGWQVSVFDSRTAYARTADFPHAHIVKQSPDDAAALIANLDCAVVMHHNLTLDAAALKVIQPFALKYVALLGPAHRRDKVLSIAALNVDSFSGFFSAPAGLALGGELPSAIALSILAQCHGVLHGAAFSTLDGMMP	not soluble
MITLWGRNNSTNVKKVLWTLEELELPYDQILAGGKFGVNQDADYLAMNPNGLVPLLKDDETDLLLWESNAIVRYLAAQYGQNRLWVDNPARRAEGEKWMDWANQTLSPAHRVILMGLVRTPPEKRDQAAIEAGIEKCDSLFALLDDALAHQPWFSGDNFGTGDIAIAPFVYNLLNVGLKWTPRPNLERWYQQLTERPAFRKVVMIPVT	not soluble
MKKTRTANLHHLYHEALPEDVKLTPRVEVDNVHQRRTTDVYEHALTITAWQQIYDQLHPGKFHGEFTEILLDEIQVFREYTGLALRQSCLVWPNSFWFGIPATRGEQGFIGAQGLGSAEIATRPGGTEFELSTPDDYTILGVVISEDVISRQATFLHNPERVLHMLRNQLALEVKEQHKAALWGFVQQALATFSESPETLHQPAVRKVLSDNLLLAMGTMLEEAKPIHSAESISHQGYRRLLSRAREYVLENMSEPLTVLDLCNQLHVSRRTLQNAFHAILGIGPNAWLKRIRLNAVRRELISPWSQSATVKDAAMQWGFWHLGQFATDYQQLFAEKPSLTLHQRMRQWA	not soluble
MFVLSIALLSCTTLCAATTEWWGDLRAHLNPARQAPFYDVTYDEKVNVCPQGLHADAIPEYVYFGTMLATMTVDEHDQCLQKCAEKPRCKAVNFFHPFAYQEKGFCELLTEGQLDNPSLMRPFRKATYYEKIRCRELDDVEDVEEAAPIGSEITEKLPEDMAREKKLDMSKLMKKLSAKVKEFNGGAGGFRAAR	not soluble
MESNNGIILRVAEANSTDPGMSRVRLDESSRRLLDAEIGDVVEIEKVRKTVGRVYRARPEDENKGIVRIDSVMRNNCGASIGDKVKVRKVRTEIAKKVTLAPIIRKDQRLKFGEGIEEYVQRALIRRPMLEQDNISVPGLTLAGQTGLLFKVVKTLPSKVPVEIGEETKIEIREEPASEVLEEGG	soluble
MAHHHHHHMMYSKNDEFNVKKEMDMNLKCDNVNLDIWNTSFLNNETLNEDIFIHIGNKLLKMYYTTNHNIPSETLYSLLYEMKNGYNNVPYHNSIHAAMVTHHCNVLVSNLNTANILRDNELGALFVASLGHDIGHFGRTNIFLKNCCNFLSIIYNDKSILENYHCSYLFNILLKDENNIFKNEDPKCLLALRQQIIELILATDMSKHIKILAQFRIKSIKIKSYIEKNIILCLKMIIKAADLSHNCVDWSEHYQWVKRLVNEFYYEGDELFQMGYKINPLFDRNCHNNFIQIQRTFLKELVYPLIISLKTLDNTSITQDMINNVKRNYSKWTKI	soluble
MVSSLIRLRGGGLAEWNPEERPSIPAEIKRRVLVEAGHRCAIPTCRHIEVDIHHIVPWRTCQAHEYENLIALCPNCHRRADREEIDRKSLKLYKLNLRFVHEKYSQIEMDMLFDLARAPDGVGAPWTPFMLIFFKRVIDSGFVNVYELPGGIFVNGIKSSPSYLTITELGRNFISELGDRDLLALEHHHHHH	not soluble

— the DeepSol protein solubility set
